# Reference: article PMC2845083
# Biological target: 6xHis-hKNL1 fragment (amino acids 1-86), Ser-Asp phospho-mimetic mutations in the SILK and RVSF motifs (human) (UniProt Q8NG31)
# Test: pull-down
substance,measurement,value
recombinant hPP1γ (protein phosphatase 1 gamma catalytic subunit) (from UniProt P36873 1-323) (enzyme),reduction of binding against wild type,> 70%
